# Assay results: patent US20230329245A1, “COMPOSITIONS AND METHODS OF USE THEREOF” (Curie Co. Inc., priority 2020, published 2023)
# Test: Colorimetric hydroxamate Tgase activity assay
# Format: biochemical
# Details: zymogen purified on Ni-IMAC resin and desalted
# Experimental: The cells were lysed using a high-pressure homogenizer at pressures from 15000-20000 psi. The crude lysates were clarified through centrifugation at 15000×g for up to 60 minutes. The clarified lysate containing pro-Tgase SEQ ID NO:3 was evaluated by sodium dodecyl sulfate polyacrylamide gel electrophoresis (SDS-PAGE) and spectroscopy (A280 nm). The clarified lysate was further purified by affinity column on a Ni-IMAC resin and desalted.
molecule,measurement,value
"Pro-Tgase SEQ ID NO:3: variant of Streptomyces mobaraensis Tgase zymogen form (pro-Tgase), SEQ ID NO:3 (protein) MDNGAGEETKSYAETYRLTADDVANINALNESAPAASSAGPSFRAPDPDDRVTPPAEPLDRMPDPYRPSYGRAETVVNNYIRKWQQVYSHRDGRKQQMTEEQREWLSYGCVGVTWVNSGQYPTNRLAFASFDEDRFKNELKNGRPRSGETRAEFEGRVAKESFDEEKGFQRAREVASVMNRALENAHDESAYLDNLKKELANGNDALRNEDARSPFYSALRNTPSFKERNGGNHDPSRMKAVIYSKHFWSGQDRSSSADKRKYGDPDAFRPAPGTGLVDMSRDRNIPRSPTSPGEGFVNFDYGWFGAQTEADADKTVWTHGNHYHAPNGSLGAMHVYESKFRNWSEGYSDFDRGAYVITFIPKSWNTAPDKVKQGWPLEHHHHHH",Tgase activity (colorimetric hydroxamate activity assay),little to no activity
